Measured values published in US9878051.

Target: fetuin
Assay: ELISA on coated fetuin, OS-PT at 20 µg/ml, detection with anti-PT serum

“OS-PT conjugate: B. pertussis 186 LOS-derived oligosaccharide coupled to pertussis toxin by reductive amination (oligosaccharide content not specified at the place) (from UniProt P04977 35-269; P04978 28-226; P04979 29-227; P0A3R5 43-152; P04981 35-133)” showed an absorbance at A405 nm of 0.117 A405 nm.
